In test [1] the target is T1, E. coli RNA polymerase holoenzyme (native) (E. coli, UniProt P0A8V2 1-1342; P0A8T7 1-1407; P00579 1-613; P0A7Z4 1-329; P0A800 1-91). Put plainly: cell-based or functional assay.
In test [2] the target is T1, E. coli RNA polymerase holoenzyme …. Particulars: both partners purified.

B1: VHML Orf8 (Orf8 from Vibrio phage VHML) (natural protein)
chain: MTDCSADPLDRAAALSQAHLEVSLSRIKKFEGVSAHECVECGSEIPKKRRELLQGVTDCVDCAAIKETLSKNYMR
What is called IC50 is the point on the concentration scale where inhibition reaches its midpoint. Higher therefore signals lower potency. For B1, the “IC50 for inhibition of rrnB P1 transcription, multiround in vitro transcription with E. coli RNAP (4 nM to 2,000 nM factor)” value (shortened to “IC50 for inhibition”) in test [1] turned out to be 800 nM. For the same molecule, the concentration for half-maximal inhibition (IC50) in test [2] worked out at 3000 nM.

B2: λ Orf73 (Orf73 from bacteriophage lambda) (natural protein)
chain: ADIIDSASEIEELQRNTAIKMRRLNHQAISATHCCECGDPIDERRRLVVQGCRTCASCQEDLELISKQRGSK
Regarding B2, the “IC50 for inhibition” value in test [1] was ~50 nM.

B3: VP882 Orf61 (Orf61 from Vibrio phage VP882) (natural protein)
chain: SDIADQAQDVIEQHLTASLANRKHNINPAIPSAKHCDDCESEIPEARRRSLPGVRLCVDCASLQEIKGRHQR
Regarding B3, the “IC50 for inhibition” value in test [1] was 270 nM. For the same molecule, in test [2], inhibition was half-maximal at 1700 nM (IC50).

The values above are taken from article PMC9239242 (mBio, 2022).
